The values below come from patent US20040228866A1, “Suppressor genes” (Ludwig Institute for Cancer Research, priority 2000, published 2004).

The target of one test is T1, p63γ (Homo sapiens, UniProt Q9H3D4).
T1 construct: expressed in transfected cells; host or cells: Saos-2
T1 sequence (Q9H3D4 1-487 isoform Q9H3D4-5): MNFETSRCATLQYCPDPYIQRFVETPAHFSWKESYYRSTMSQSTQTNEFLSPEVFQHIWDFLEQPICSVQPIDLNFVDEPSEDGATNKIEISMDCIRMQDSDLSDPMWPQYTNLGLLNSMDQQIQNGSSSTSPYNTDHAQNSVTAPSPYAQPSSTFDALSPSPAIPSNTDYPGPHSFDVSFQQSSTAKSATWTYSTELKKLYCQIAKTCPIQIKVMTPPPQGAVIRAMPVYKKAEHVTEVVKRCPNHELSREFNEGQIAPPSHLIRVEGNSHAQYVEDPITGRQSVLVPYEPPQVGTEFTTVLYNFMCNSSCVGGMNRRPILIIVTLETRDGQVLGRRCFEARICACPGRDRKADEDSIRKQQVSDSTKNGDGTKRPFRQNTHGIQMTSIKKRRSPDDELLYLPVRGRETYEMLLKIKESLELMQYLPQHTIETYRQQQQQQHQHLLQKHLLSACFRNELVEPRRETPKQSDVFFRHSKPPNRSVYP
Put plainly: Transient luciferase reporter assay of p63γ transactivation function. Type of test: cell-based. Conditions: FIG. 14C. As to the method: (§1) To determine the amount of protein expression, Saos-2 cells (5×10^5) were plated 24 hours prior to transfection in 6 cm dishes. […] To determine the amount of gene activation, after transfection, the cells were lysed in Reporter Lysis Buffer 16-24 hours post-wash and assayed using the Luciferase Assay kit (Promega, Wis.). The fold activation of a particular reporter was determined by the activity of the transfected plasmid above the activity of vector alone.
(§2) The expression level of transfected proteins was detected using 40 μg of the respective lysates using the antibodies V5, DX.5410, DO1, 4A4 and p73. […] Results were derived from at least three independent experiments.

A further test relates to Saos-2 cells. Put plainly: Apoptosis by flow cytometry (CD20-gated, sub-G1 DNA content) in transfected Saos-2 cells. Type of test: cell-based. Conditions: for effect on apoptotic function of p53 mutants 181L and 181C: FIG. 6A; for increase in percentage of cells that die of apoptosis with E2F1: co-expression with E2F1, FIG. 4B; for apoptotic function of p63γ and p73α: co-expression, FIG. 15; for apoptosis when expressed alone: no p53 co-expressed; for effect on apoptosis induced by p53H175-L: transcriptionally inactive, mitochondria-targeted mutant p53, FIG. 9A. On the procedure: Apoptosis was identified by the expression of the co-transfected cell surface marker CD20, as described in Samuels-Lev et al. (Mol. Cell 8:781-94, 2001, herein incorporated by reference).
The number of apoptotic cells was determined using the methods described in Example 6.
Cells (10^6) were plated 24-48 hours prior to transfection in 10 cm plates. Cells were grown in DMEM supplemented with 10% FCS and transfected with 2 μg of a plasmid expressing CD20 as a transfection marker. Increasing amounts of ASPP1 and ASPP2 were transfected (7.5 μg, 15 μg and 25 μg). 36 hours after the transfection, both attached and floating cells were harvested and analysed using flow cytometry as follows. The transfected cells were gated based on the expression of CD20. The percentage of apoptotic cells was measured by the accumulation of cells with a sub-G1 DNA content derived from at least three individual experiments.
The transfected cells were analyzed by flow cytometry as described in Example 6.
Background: In flow cytometry, cells or beads pass a laser one at a time.

The target in the next test is T2, E2F1 (Homo sapiens, UniProt Q01094).
T2 construct: expressed in transfected cells
T2 sequence (Q01094 whole entry, species assumed): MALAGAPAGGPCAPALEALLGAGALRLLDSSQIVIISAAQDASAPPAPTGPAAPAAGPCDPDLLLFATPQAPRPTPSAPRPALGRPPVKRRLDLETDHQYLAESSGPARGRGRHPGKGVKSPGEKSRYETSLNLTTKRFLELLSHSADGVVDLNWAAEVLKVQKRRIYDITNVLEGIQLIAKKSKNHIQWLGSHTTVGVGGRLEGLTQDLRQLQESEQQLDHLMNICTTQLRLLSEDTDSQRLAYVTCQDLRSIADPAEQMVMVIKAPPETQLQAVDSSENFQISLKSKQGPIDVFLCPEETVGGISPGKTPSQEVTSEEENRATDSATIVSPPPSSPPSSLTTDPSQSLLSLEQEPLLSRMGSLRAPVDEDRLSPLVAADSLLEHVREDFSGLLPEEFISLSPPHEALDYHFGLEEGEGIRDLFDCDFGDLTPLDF
Put plainly: Transient reporter assay of E2F1 transactivation function. Conditions: co-expression with E2F1, FIGS. 2C and 2D. The class given is cell-based. (In general: Reporter assays use an easily measured gene product as a stand-in for the process of interest.)

Test [1] concerns the target T3, p73α (Homo sapiens, UniProt O15350).
T3 construct: expressed in transfected cells; host or cells: H1299 and Saos-2; part of the results from in vitro translation
T3 sequence (O15350 1-636): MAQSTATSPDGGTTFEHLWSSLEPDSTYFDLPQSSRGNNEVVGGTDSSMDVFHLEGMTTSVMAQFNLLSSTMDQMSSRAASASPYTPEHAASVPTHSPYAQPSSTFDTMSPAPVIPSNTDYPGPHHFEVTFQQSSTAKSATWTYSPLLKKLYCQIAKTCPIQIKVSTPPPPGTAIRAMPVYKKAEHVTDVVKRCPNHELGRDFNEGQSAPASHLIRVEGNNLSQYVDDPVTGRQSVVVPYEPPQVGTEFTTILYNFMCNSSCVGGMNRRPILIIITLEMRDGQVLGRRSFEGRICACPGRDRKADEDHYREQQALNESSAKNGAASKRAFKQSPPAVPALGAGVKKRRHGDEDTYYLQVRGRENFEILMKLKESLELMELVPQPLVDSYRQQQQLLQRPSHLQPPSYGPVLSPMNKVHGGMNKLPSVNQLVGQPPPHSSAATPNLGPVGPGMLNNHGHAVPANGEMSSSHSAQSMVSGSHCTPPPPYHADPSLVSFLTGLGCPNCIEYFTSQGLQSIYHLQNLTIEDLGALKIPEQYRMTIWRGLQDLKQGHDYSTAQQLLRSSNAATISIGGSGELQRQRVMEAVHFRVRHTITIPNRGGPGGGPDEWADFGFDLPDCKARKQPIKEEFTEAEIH
Put plainly: Transient luciferase reporter assay of p73α transactivation function. The class given is cell-based. Conditions: for stimulation of the transactivation function of p73α on the Bax promoter: Example 16, FIGS. 14A and 14B; for transactivation function of p73α on the mdm2 promoter: FIG. 14C. On the procedure:
as §1, §2

The target of test [2] is T3, p73α. Put plainly: Co-immunoprecipitation with p73α (in vitro translated; transfected H1299 and Saos-2 cells). Type of test: binding. Conditions: for interaction with p73α in vitro: in vitro translated proteins, FIGS. 12B and 12C; for interaction with p73α in vivo: transfected cells, FIGS. 13B and 13D. As to the method: V5-tagged ASPP1 and ASPP2 proteins were in vitro translated with cold methionine using the TNT T7 Quick coupled Transcription/Translation System (Promega). Cell lysates were incubated at 30° C. for 1 hour and then immunoprecipitated with anti-V5 antibody on protein G agarose beads.
The agarose beads were added to the binding reactions and incubated on a rotating wheel at 4° C. for 16 hours. The beads were then washed with PBS. The bound proteins were released in SDS gel sample buffer and analysed by 10% SDS-polyacrylamide gel electrophoresis (PAGE). The gels were wet transferred on to Protran nitrocellulose membrane and the resulting blots were first incubated with primary antibody and subsequently with the appropriate secondary HRP conjugated antibody (Dako). The blot was exposed to hyperfilm following the use of ECL substrate solution (Amersham Life Science).
Cells were transfected with 1 μg of p63γ or p73α in the presence or absence of 10 μg of ASPP1 or ASPP2. Cell lysate (1 mg) was immunoprecipitated with an antiASPP1 or ASPP2 antibody (see Example 2 and 7). The immunoprecipitates were separated on an SDS gel and the presence of p63 or p73 on the immunoblots detected by mouse monoclonal antibodies 4A4 (Santa Cruz) and ER-15 (Neomarker) to p63 or p73, respectively. The presence of ASPP1 or ASPP2 was detected with antibodies YX.7 and DX5410, respectively.
In some methods, larger amounts of cell lysate (2 mg) were immunoprecipitated with rabbit antibodies ASPP1.88 or BP77 to ASPP1 and ASPP2, respectively. The expression of ASPP1, ASPP2, p63γ and p73α was detected as described above.

B1: ASPP2: full length 1128 amino acid protein, SEQ ID NO: 4 (protein, listed as Homo sapiens)
chain: MMPMFLTVYLSNNEQHFTEVPVTPETICRDVVDLCKEPGESDCHLAEVWCGSERPVADNERMFDVLQRFGSQRNEVRFFLRHERPPGRDIVSGPRSQDPSLKRNGVKVPGEYRRKENGVNSPRMDLTLAELQEMASRQQQQIEAQQQLLATKEQRLKFLKQQDQRQQQQVAEQEKLKRLKEIAENQEAKLKKVRALKGHVEQKRLSNGKLVEEIEQMNNLFQQKQRELVLAVSKVEELTRQLEMLKNGRIDSHHDNQSAVAELDRLYKELQLRNKLNQEQNAKLQQQRECLNKRNSEVAVMDKRVNELRDRLWKKKAALQQKENLPVSSDGNLPQQAASAPSRVAAVGPYIQSSTMPRMPSRPELLVKPALPDGSLVIQASEGPMKIQTLPNMRSGAASQTKGSKIHPVGPDWSPSNADLFPSQGSASVPQSTGNALDQVDDGEVPLREKEKKVRPFSMFDAVDQSNAPPSFGTLRKNQSSEDILRDAQVANKNVAKVPPPVPTKPKQINLPYFGQTNQPPSDIKPDGSSQQLSTVVPSMGTKPKPAGQQPRVLLSPSIPSVGQDQTLSPGSKQESPPAAAVRPFTPQPSKDTLLPPFRKPQTVAASSIYSMYTQQQAPGKNFQQAVQSALTKTHTRGPHFSSVYGKPVIAAAQNQQQHPENIYSNSQGKPGSPEPETEPVSSVQENHENERIPRPLSPTKLLPFLSNPYRNQSDADLEALRKKLSNAPRPLKKRSSITEPEGPNGPNIQKLLYQRTTIAAMETISVPSYPSKSASVTASSESPVEIQNPYLHVEPEKEVVSLVPESLSPEDVGNASTENSDMPAPSPGLDYEPEGVPDNSPNLQNNPEEPNPEAPHVLDVYLEEYPPYPPPPYPSGEPEGPGEDSVSMRPPEITGQVSLPPGKRTNLRKTGSERIAHGMRVKFNPLALLLDSSLEGEFDLVQRIIYEVDDPSLPNDEGITALHNAVCAGHTEIVKFLVQFGVNVNAADSDGWTPLHCAASCNNVQVCKFLVESGAAVFAMTYSDMQTAADKCEEMEEGYTQCSQFLYGVQEKMGIMNKGVIYALWDYEPQNDDELPMKEGDCMTIIHREDEDEIEWWWARLNDKEGYVPRNLLGLYPRIKPRQRSLA
Consider B1, for which, in the test with p63γ, the “transactivation function of p63γ on the mdm2 promoter” value was “failed to stimulate”. Moreover, the “percentage of apoptotic cells, co-expressed with p53” value in the test with Saos-2 cells (Example 11, p53 alone […]%) came to 30%. In the test on Saos-2 cells, the “effect on apoptotic function of p53 mutants 181L and 181C” value is reported as “failed to enhance the apoptotic function of either p53 mutant”; the “increase in percentage of cells that die of apoptosis with E2F1” value is reported as “only an additive increase”; the “apoptotic function of p63γ and p73α” value was “enhanced the apoptotic function of p63γ and p73α”; the “apoptosis when expressed alone” value was “lower level of apoptosis”. Also, in the test with Saos-2 cells, the “effect on apoptosis induced by p53H175-L” value was “failed to enhance the apoptotic function of p53H175-L”. For the same molecule, the “transactivation function of E2F1 on cyclin A, b-myb and synthetic promoter 3×wt” value with E2F1 was “failed to stimulate”. Also, in the test with p73α [1], the “stimulation of the transactivation function of p73α on the Bax promoter” value came to 6 fold and the “transactivation function of p73α on the mdm2 promoter” value is on record as “failed to stimulate”. Moreover, in the test with p73α [2], the “interaction with p73α in vitro” value is “co-immunoprecipitated”; the “interaction with p73α in vivo” value is “co-immunoprecipitated transfected p63γ and p73α”.

B2: ASPP1: Apoptosis Stimulating Protein 1, protein of SEQ ID NO: 2, expressed from a transfected plasmid (protein, listed as Homo sapiens)
chain: MMPMILTVFLSNNEQILTEVPITPETTCRDVVEFCKEPGEGSCHLAEVWRGNERPIPFDHMMYEHLQIWGPRREEVKFFLRHEDSPTENSEQGGRQTQEQRTQRNVINVPGDKRTEYGVGNPRVELTLSELQDMAARQQQQIENQQQMLVAKEQRLHFLKQQERRQQQSISENEKLQKLKERVEAQENKLKKIRAMRGQVDYSKIMNGNLSAEIERFSAMFQEKKQEVQTAILRVDQLSQQLEDLKKGKLNGFQSYNGKLTGPAAVELKRLYQELQIRNQLNQEQNSKLQQQKELLNKRNMEVAMMDKRISELRERLYGKKIQLNRVNGTSSPQSPLSTSGRVAAVGPYIQVPSAGSFPVLGDPIKPQSLSIASNAAHGRSKSANDGNWPTLKQNSSSSVKPVQVAGADWKDPSVEGSVKQGTVSSQPVPFSALGPTEKPGIEIGKVPPPIPGVGKQLPPSYGTYPSPTPLGPGSTSSLERRKEGSLPRPSAGLPSRQRPTLLPATGSTPQPGSSQQIQQRISVPPSPTYPPAGPPAFPAGDSKPELPLTVAIRPFLADKGSRPQSPRKGPQTVNSSSIYSMYLQQATPPKNYQPAAHSALNKSVKAVYGKPVLPSGSTSPSPLPFLHGSLSTGTPQPQPPSESTEKEPEQDGPAAPADGSTVESLPRPLSPTKLTPIVHSPLRYQSDADLEALRRKLANAPRPLKKRSSITEPEGPGGPNIQKLLYQRFNTLAGGMEGTPFYQPSPSQDFMGTLADVDNGNTNANGNLEELPPAQPTAPLPAEPAPSSDANDNELPSPEPEELICPQTTHQTAEPAEDNNNNVATVPTTEQIPSPVAEAPSPGEEQVPPAPLPPASHPPATSTNKRTNLKKPNSERTGHGLRVRFNPLALLLDASLEGEFDLVQRIIYEVEDPSKPNDEGITPLHNAVCAGHHHIVKFLLDFGVNVNAADSDGWTPLHCAASCNSVHLCKQLVESGAAIFASTISDIETAADKCEEMEEGYIQCSQFLYGVQEKLGVMNKGVAYALWDYEAQNSDELSFHEGDALTILRRKDESETEWWWARLGDREGYVPKNLLGLYPRIKPRQRTLA
Turning to B2, the “transactivation function of p63γ on the mdm2 promoter” value with p63γ was “failed to stimulate”. Also, in the test on Saos-2 cells, the “effect on apoptotic function of p53 mutants 181L and 181C” value was “failed to enhance the apoptotic function of either p53 mutant”; the “increase in percentage of cells that die of apoptosis with E2F1” value is on record as “only an additive increase”; the “apoptotic function of p63γ and p73α” value was “enhanced the apoptotic function of p63γ and p73α”; the “apoptosis when expressed alone” value is on record as “lower level of apoptosis”. Also, the “effect on apoptosis induced by p53H175-L” value with Saos-2 cells is given as “failed to enhance the apoptotic function of p53H175-L”. The “transfected cells that die of apoptosis” value in the test with Saos-2 cells (co-expressed with p53, Example 6, FIGS. 4A and 4C) is “Approximately 50%”. In the test with E2F1, the “transactivation function of E2F1 on cyclin A, b-myb and synthetic promoter 3×wt” value is on record as “failed to stimulate”. Further, in the test with p73α [1], the “stimulation of the transactivation function of p73α on the Bax promoter” value was 3 fold and the “transactivation function of p73α on the mdm2 promoter” value is listed as “failed to stimulate”. Moreover, in the test with p73α [2], the “interaction with p73α in vitro” value is “co-immunoprecipitated”; the “interaction with p73α in vivo” value was “co-immunoprecipitated transfected p63γ and p73α”.
